This is an account of results in US9610329B2 (Albireo Pharma, Inc., priority 2009, dated 2017).

Like-named read-outs stand apart in the source and are kept apart here. Where only a bound is given, the exact number is not on record here.

Series [1] can be described thus: Accelerated stability study at 37° C., BIOD 901 compared to Lilly glucagon (Example 3). It is filed as physicochemical. The conditions noted are these: in solution at pH 4.
For series [2] the following is noted: cited from earlier work.
The conditions of series [3]: cited from earlier work. This is another data set of the same source.

In turn, glucagon yielded a time to gel in series [1] of no more than 2 days. Besides, in series [2] (acidic aqueous conditions (pH 3-4)), the gel formation result is given as “forms a gel”. In addition, the precipitation result in series [2] (neutral aqueous solution) is “precipitates within an hour of preparation”. The “solubility in aqueous solutions” value in series [2] (pH less than 3 or greater than 9) is recorded as “soluble”; in series [2] (pH range of 4 to 8), “low solubility”. The “onset of action post injection” value in series [3] is 5 to 20 min.
